This is an account of results in PMC9325753, “Chilling-induced phosphorylation of IPA1 by OsSAPK6 activates chilling tolerance responses in rice”.

The data set deals with T1, GST-IPA1 (Oryza sativa, UniProt Q7EXZ2 1-417).
T1 sequence: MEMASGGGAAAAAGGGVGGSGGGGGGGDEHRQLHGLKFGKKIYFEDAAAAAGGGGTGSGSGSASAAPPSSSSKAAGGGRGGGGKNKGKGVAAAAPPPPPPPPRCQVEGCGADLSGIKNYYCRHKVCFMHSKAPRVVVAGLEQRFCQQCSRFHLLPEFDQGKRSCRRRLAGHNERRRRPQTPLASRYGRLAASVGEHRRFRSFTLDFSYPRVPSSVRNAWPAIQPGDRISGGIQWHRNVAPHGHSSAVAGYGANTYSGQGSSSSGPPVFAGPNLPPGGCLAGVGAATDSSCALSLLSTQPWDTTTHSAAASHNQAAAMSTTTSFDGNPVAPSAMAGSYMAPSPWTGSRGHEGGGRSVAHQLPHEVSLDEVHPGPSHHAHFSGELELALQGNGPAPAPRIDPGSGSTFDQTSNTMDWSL
Nature of the data set: EMSA; LightShift Chemiluminescent EMSA Kit (Thermo 20148) per manufacturer; buffer, salt, pH and temperature not stated. To be noted: protein: recombinant; tags: N-terminal GST (pGEX-4t-1); label: 5'-biotin on strand 1; blunt.

B1: Biotin-P2 (OsCBF3 promoter) (dsDNA)
DNA 1: TACCTAGGTTTTAAGTTATAGTACTTACAATTTTTTGATGAG
DNA 2: CTCATCAAAAAATTGTAAGTACTATAACTTAAAACCTAGGTA
For B1, the binding result is on record as “binds”.

B2: Biotin-P2-m (GTAC to ATAC) (dsDNA)
DNA 1: TACCTAGGTTTTAAGTTATAATACTTACAATTTTTTGATGAG
DNA 2: CTCATCAAAAAATTGTAAGTATTATAACTTAAAACCTAGGTA
Take B2: the binding result is “no binding”.
